The target of assay [1] is YFP-IP3R type 1. The experiment in a line: acceptor photobleaching FRET, fixed COS-7 cells expressing YFP-IP3R and CFP-Bcl-2.
Assay [2] has as its target Bcl-2 exogenously expressed in WEHI7.2 cells (UniProt P10415 1-239). The assay is described as follows: cell-based or functional assay.

Bcl-2 exogenously expressed in WEHI7.2 cells, sequence (P10415 whole entry): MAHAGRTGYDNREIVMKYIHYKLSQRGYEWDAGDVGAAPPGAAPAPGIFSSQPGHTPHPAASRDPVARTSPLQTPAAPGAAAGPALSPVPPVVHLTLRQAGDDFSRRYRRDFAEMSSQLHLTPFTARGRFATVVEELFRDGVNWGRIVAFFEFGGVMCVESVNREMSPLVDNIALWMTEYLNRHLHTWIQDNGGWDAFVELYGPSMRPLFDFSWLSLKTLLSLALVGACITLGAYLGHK

In the case of CFP-Bcl-2 (from UniProt P10415 1-239), the increase of CFP signal following YFP bleaching (FRET) in assay [1] was 28%.

B1: peptide 2, aa 1389-1408 of IP3R (peptide)
peptide: NVYTEIKCNSLLPLDDIVRV
On to B1, for which the “anti-CD3-induced apoptosis in Bcl-2(+) WEHI7.2 cells, fold enhancement” value in assay [2] was 2 fold.

(Values after patent US20090048168A1 (CASE WESTERN RESERVE UNIVERSITY, published 2009).)
